The values below come from patent US20070265189A1 (published 2007).

The target of test [1] is T1, soluble human insulin receptor-immunoglobulin heavy chain chimera (sIR-Fc; Bass et al., 1996) (human, UniProt P06213 28-956, limits assumed).
T1 construct: extracellular domain; also called soluble IR (Bass construct); not shown: immunoglobulin heavy chain constant domains
Put plainly: phage ELISA.

Test [2] addresses T2, Soluble IGF-1R (sIGF-1R), R&D Systems Cat. # 391-GR/CF (UniProt P08069 31-935, limits assumed).
T2 construct: extracellular domain
Put plainly: phage ELISA.

Turning to FFYDCLAALLQGVARYHDLCAVEIT [20C-4-C7-IGFR], in test [1], the IR/IGF-1R comparison is below 0.1 and the “Ratio over Background” value is 1.3. Further, in test [2], the IGF-1R/IR comparison was found to be 21.8 and the “Ratio over Background” value is 28.

In the case of KLHNLMFYYGLQRLVWGAGLG [20E2B-4-H3-IGFR], in test [1], the IR/IGF-1R comparison came out at 0.1 and the “Ratio over Background” value is 1.1. Besides, in test [2], the IGF-1R/IR comparison came to 13.9 and the “Ratio over Background” value is 14.8.

As for SACQFDCHENFYDWFARQVSGGAAYG [H2CA-4-H8-IGFR], in test [1], the IR/IGF-1R comparison worked out at 0.1 and the “Ratio over Background” value stood at 1. Further, in test [2], the IGF-1R/IR comparison turned out to be 9.4 and the “Ratio over Background” value turned out to be 9.2.

Take VEGRGLFYDLLRQLLARRQNG [20E2B-3-C6-IGFR]: in test [1], the IR/IGF-1R comparison is 0.1 and the “Ratio over Background” value was 1.1. In addition, in test [2], the IGF-1R/IR comparison is 14.8 and the “Ratio over Background” value stood at 16.8.

For the molecule GVRAMSFYDALVSVLGLGPSG [20E2B-1-A6-IGFR], in test [1], the IR/IGF-1R comparison amounted to 0.1 and the “Ratio over Background” value came out at 1.1. In addition, in test [2], the IGF-1R/IR comparison came out at 16.8 and the “Ratio over Background” value amounted to 18.1.

Take RGCNDDGGKGWSDDPFYHKLSELICGG [B6Hα-1-A2-IR]: in test [1], the IR/IGF-1R comparison came to 0.1 and the “Ratio over Background” value turned out to be 1. In addition, in test [2], the IGF-1R/IR comparison was 14.6 and the “Ratio over Background” value is 14.6.

Regarding RLFYCGIQALGANLGYSGCV [R20α-4-20A12-IR], in test [1], the IR/IGF-1R comparison came out at 0.1 and the “Ratio over Background” value was 2.4. Further, in test [2], the IGF-1R/IR comparison is 16.6 and the “Ratio over Background” value came out at 39.9.

For AQPCGGFYGLLEQLVGRSVCD [20E2B-4-F10-IGFR], in test [1], the IR/IGF-1R comparison was determined as 0.1 and the “Ratio over Background” value is 2.2. For the same molecule, in test [2], the IGF-1R/IR comparison was found to be 7.8 and the “Ratio over Background” value came out at 17.3.

Consider PVGVQGFYEGLSRLVLGRGGW [20E2B-4-F8-IGFR], for which, in test [1], the IR/IGF-1R comparison was 0.1 and the “Ratio over Background” value is 0.8. In addition, in test [2], the IGF-1R/IR comparison worked out at 9.7 and the “Ratio over Background” value was determined as 7.3.

As to PDLHKGFYAQLAQLIRGQLLS [20E2B-3-E3-IGFR], in test [1], the IR/IGF-1R comparison is 0.1 and the “Ratio over Background” value came to 1.3. Moreover, in test [2], the IGF-1R/IR comparison turned out to be 13.1 and the “Ratio over Background” value was 16.3.

Regarding LQPCSGFYECIERLIGVKLSG [20E2Bβ-4-G7-IR], in test [1], the IR/IGF-1R comparison was determined as 0.1 and the “Ratio over Background” value turned out to be 1.6. Further, in test [2], the IGF-1R/IR comparison was 15.8 and the “Ratio over Background” value came out at 25.2.

Turning to TFYSCLASLLTGTPQPNRGPWERCR [20C-3-G3-IGFR], in test [1], the IR/IGF-1R comparison is below 0.1 and the “Ratio over Background” value came out at 1.2. Besides, in test [2], the IGF-1R/IR comparison is 27 and the “Ratio over Background” value came to 32.3.

Take DRDFCRFYERLTALVGGQVDGGWPC [20C-3-F6-IGFR]: in test [1], the IR/IGF-1R comparison is 0.1 and the “Ratio over Background” value was 1.9. In addition, in test [2], the IGF-1R/IR comparison was 14.1 and the “Ratio over Background” value was found to be 26.1.

As to QGGSASFYDAIDRLLRMRIGG [20E2A-4-F11-IGFR], in test [1], the IR/IGF-1R comparison was found to be 0.1 and the “Ratio over Background” value is 1.3. In test [2], the IGF-1R/IR comparison was found to be 14.6 and the “Ratio over Background” value is 18.8.

For LRIANLFYQRLWDLAFGGGG [20E2B-3-E8-IGFR], in test [1], the IR/IGF-1R comparison came to 0.1 and the “Ratio over Background” value came to 1.5. Besides, in test [2], the IGF-1R/IR comparison was 11.1 and the “Ratio over Background” value came out at 16.7.

For the molecule DRAFYNGLRDLVGAVYGAWD [R20α-4-20C11-IR], in test [1], the IR/IGF-1R comparison is 0.1 and the “Ratio over Background” value turned out to be 3. Also, in test [2], the IGF-1R/IR comparison turned out to be 10.3 and the “Ratio over Background” value was 30.8.

Take IQQELTFYDLLHRLVRSELGS [20E2B-3-D2-IGFR]: in test [1], the IR/IGF-1R comparison is 0.1 and the “Ratio over Background” value worked out at 1.1. Also, in test [2], the IGF-1R/IR comparison came out at 11.7 and the “Ratio over Background” value was determined as 12.4.

Regarding RGQSDAFYSGLWALIGLSDG [R20β-4-A6-IR], in test [1], the IR/IGF-1R comparison was 0.1 and the “Ratio over Background” value is 1.5. In addition, in test [2], the IGF-1R/IR comparison stood at 17.3 and the “Ratio over Background” value was determined as 25.9.

Take PGTDLGFYQALRCVVIQGACD [20E2B-2-B2-IGFR]: in test [1], the IR/IGF-1R comparison was determined as 0.1 and the “Ratio over Background” value is 0.6. In addition, in test [2], the IGF-1R/IR comparison amounted to 8.1 and the “Ratio over Background” value is 4.9.

Consider CCTTEMVVMDARDDPFYHKLSELVTGG [B6Hα-1-B5-IR], for which, in test [1], the IR/IGF-1R comparison was 0 and the “Ratio over Background” value was found to be 1. Further, in test [2], the IGF-1R/IR comparison is 20.5 and the “Ratio over Background” value came to 20.5.

In the case of FRTLAAQHDSFYDWFDRQVSGAAGER [H2CA-3-C11-IGFR], in test [1], the IR/IGF-1R comparison turned out to be 0.5 and the “Ratio over Background” value amounted to 1.6. In test [2], the IGF-1R/IR comparison turned out to be 2.1 and the “Ratio over Background” value amounted to 3.3.

With VGYQGQGDENFYDWFIRQVSGRLGVQ [H2CA-4-F5-IGFR], in test [1], the IR/IGF-1R comparison is 0.1 and the “Ratio over Background” value stood at 0.8. For the same molecule, in test [2], the IGF-1R/IR comparison worked out at 12.3 and the “Ratio over Background” value is 9.7.

Turning to GGTEVDFYRALERLVRGQLGL [20E2B-3-D8-IGFR], in test [1], the IR/IGF-1R comparison was determined as 0.1 and the “Ratio over Background” value turned out to be 1.6. Moreover, in test [2], the IGF-1R/IR comparison amounted to 11.3 and the “Ratio over Background” value amounted to 17.7.

In the case of FYDAIDQLVRGSARAGGTRD [R20α-3-20E2-IR], in test [1], the IR/IGF-1R comparison stood at 0.1 and the “Ratio over Background” value turned out to be 3.1. In addition, in test [2], the IGF-1R/IR comparison was 12.9 and the “Ratio over Background” value is 39.9.

On to SSYGCDGFYLMLFSLGLVASQELEC [20C-3-A1-IGFR], for which, in test [1], the IR/IGF-1R comparison came to 0.1 and the “Ratio over Background” value stood at 1.5. In addition, in test [2], the IGF-1R/IR comparison worked out at 13.7 and the “Ratio over Background” value came to 20.8.

Consider RFSTDGFYQYLLALVGGGPVG [20E2B-1-A11-IGFR], for which, in test [1], the IR/IGF-1R comparison worked out at 0.1 and the “Ratio over Background” value is 1. In test [2], the IGF-1R/IR comparison was 9.7 and the “Ratio over Background” value came to 9.5.

Turning to RCEEKQAEVGPSSDPFYHKMSELLGCR [B6Hα-3-E9-IR], in test [1], the IR/IGF-1R comparison was 0.1 and the “Ratio over Background” value amounted to 1.7. Besides, in test [2], the IGF-1R/IR comparison stood at 14.2 and the “Ratio over Background” value was determined as 24.2.

For the molecule QPAPDGFYSALMKLIGRGGVS [20E2B-3-C8-IGFR], in test [1], the IR/IGF-1R comparison came out at 0.1 and the “Ratio over Background” value stood at 1.8. In test [2], the IGF-1R/IR comparison turned out to be 8.9 and the “Ratio over Background” value worked out at 15.6.

Turning to GNGDGMFYQLLSLLVGRDMHV [20E2B-3-02-IGFR], in test [1], the IR/IGF-1R comparison came out at 0.1 and the “Ratio over Background” value worked out at 0.6. Further, in test [2], the IGF-1R/IR comparison was 13.8 and the “Ratio over Background” value stood at 8.9.

As to LKDGFYDYFWQRLHLGS [NNRPγ-4-B11-IR], in test [1], the IR/IGF-1R comparison stood at 0.1 and the “Ratio over Background” value amounted to 1.2. Besides, in test [2], the IGF-1R/IR comparison came to 15.5 and the “Ratio over Background” value was 18.7.

On to RGMKEEVLVGGSTDPFYHKLSELLQGS [B6Hα-3-F11-IR], for which, in test [1], the IR/IGF-1R comparison is 0.1 and the “Ratio over Background” value came out at 1.6. In addition, in test [2], the IGF-1R/IR comparison was found to be 11.7 and the “Ratio over Background” value turned out to be 18.7.

In the case of YSCGDGFYSLLSDLLGGQFRC [20E2B-4-H12-IGFR], in test [1], the IR/IGF-1R comparison stood at 0.1 and the “Ratio over Background” value stood at 0.8. In test [2], the IGF-1R/IR comparison came to 12.8 and the “Ratio over Background” value came to 9.7.

Regarding NSRDGGFYLQLERLLGFPVTG [20E2B-3-D4-IGFR], in test [1], the IR/IGF-1R comparison was determined as 0.1 and the “Ratio over Background” value was 0.8. In test [2], the IGF-1R/IR comparison is 9.6 and the “Ratio over Background” value was found to be 7.9.
